Experimental data reported in US11926665B2, “Methods of treating cancer with anti-TIM-3 antibodies” (TESARO, INC., priority 2017, dated 2024).

Experiments:
[1] = tested on: PARP activity; conditions: various cell lines, DNA damage by hydrogen peroxide, cited from earlier work
[2] = tested on: advanced or metastatic solid tumors; assay: Phase 1 dose escalation, best tumor response; assay type: in vivo, human
Text: (§1) This example describes a multicenter, open-label, first-in-human Phase 1 study evaluating a TIM-3 binding agent (an anti-TIM-3 antibody), in patients with tumors. Specifically the dosage effects in patients with advanced solid tumors treated with a particular TIM-3 binding agent. A TIM-3 binding agent (TSR-022) as described in the present study comprises a humanized monoclonal anti-TIM-3 antibody comprising a heavy chain whose amino acid sequence comprises SEQ ID NO: 3 and a light chain whose amino acid sequence comprises SEQ ID NO:4 are evaluated. This anti-TIM-3 antibody utilizes a human IGHG4*01 heavy chain gene, and a human IGKC*01 kappa light chain gene, as scaffolds. Further, there is a single Ser to Pro point mutation in the hinge region of the IgG4 heavy chain at the canonical S228 position.
Patients were included with histologically or cytologically proven advanced (unresectable) or metastatic solid tumor and who had disease progression after treatment with available therapies that are known to confer clinical benefit or who are intolerant to other known treatment(s).
The study comprises several parts: dose escalation and cohort expansion. Part 1a of the study (dose escalation) is intended, inter alia, to evaluate the safety, PK, and PDy profile, tolerability and anti-cancer effect of the anti-TIM-3 antibody. A modified 3+3 design was used for dose escalation at 0.03 mg/kg, 0.1 mg/kg, 0.3 mg/kg, 1.0 mg/kg, 3 mg/kg, and 10 mg/kg and higher every 2 weeks (Q2W) with the dose of the TIM-3 antibody not to exceed 20 mg/kg. […]
The best response observed was also evaluated in efficacy evaluable patients (e.g., patients who received at least two doses and either had at least one post-baseline assessment or had discontinued treatment due to clinical progression prior to post-baseline tumor assessment. Stable disease (5/25 patients) and partial response (1/25 patients at 10 mg/kg) were observed as the best response in patients with rectal, thyroid, neuroendocrine, or head and neck cancer, or with soft tissue sarcoma.

[3] = Phase 1 study, serum pharmacokinetics after first dose; assay type: in vivo; conditions: patients, first dose 0.03-10 mg/kg, monitored for two weeks, FIG. 6A
Text: as §1
The study comprises several parts: dose escalation and cohort expansion. Part 1a of the study (dose escalation) is intended, inter alia, to evaluate the safety, PK, and PDy profile, tolerability and anti-cancer effect of the anti-TIM-3 antibody. […]
After patients received the first dose of TSR-022 at various levels (0.03-10 mg/kg), the TSR-022 concentration in serum was monitored for two weeks and the pharmacokinetic (PK) behaviors were characterized.

[4] = target: T1, TIM-3 (Homo sapiens, UniProt Q8TDQ0); assay: TIM-3 receptor occupancy on circulating CD14+ monocytes by flow cytometry; assay type: in vivo
T1 construct: endogenous in cells; host or cells: circulating CD14+ monocytes in patients' whole blood
Description: TIM-3 receptor occupancy (RO) by TSR-022 on circulating CD14^+ monocytes was measured by flow cytometry. Briefly, whole blood samples from patients treated with TSR-022 were stained with anti-CD14, a non-competing anti-TIM-3 antibody (indicating total TIM-3) and a competing anti-TIM-3 antibody (indicating unbound or free TIM-3). TIM-3 occupancy by infused TSR-022 was estimated as the ratio of free TIM-3 on CD14+ cells to the total TIM-3 on CD14+ cells. A decrease in the ratio indicates an increase in TSR-022 bound TIM-3 receptor. To measure binding in the RO assay, whole blood was collected from patients at baseline (Day 1 predose), 48 hours following the first dose (Day 3) and prior to the second dose (Day 15 predose) for the Q2W schedule. […] Samples for occupancy measurement on the Q3W schedule were collected as follows: Day 1 predose, Day 5, Day 15 and Day 22. Ex vivo TSR-022 saturated healthy donor samples (“sat”) as well as controls lacking detection antibodies (“Bkgd”) were included as controls.
FIGS. 7A-7C respectively show receptor occupancy studies of the anti-TIM-3 antibody (TSR-022) administered at doses of 1 mg/kg (FIG. 7A), 3 mg/kg (FIG. 7B), and 10 mg/kg (FIG. 7C) every two weeks (Q2W). All samples were pre-dose, with occupancy measured after a single dose on day 1. The occupancy ratio (free TIM-3:total TIM-3) is determined at various time points (for example, timepoints can include day 1, day 3, day 15, day 22, and day 29). The receptor occupancy is maximal on day 3 across doses of TSR-022.

[5] = Phase 1 dose escalation, safety and tolerability; assay type: in vivo
Description: The study comprises several parts: dose escalation and cohort expansion. Part 1a of the study (dose escalation) is intended, inter alia, to evaluate the safety, PK, and PDy profile, tolerability and anti-cancer effect of the anti-TIM-3 antibody. […] Part 1a could also comprise the testing of a “flat” dose, or a specific fixed number of milligrams of antibody (as opposed to the weight based dosing mg/kg). Flat doses could range from 200 mg to 1500 mg of anti-TIM-3 antibody. Part 1b of the study (combination with PD1 dose escalation cohorts) is intended, inter alia, to evaluate the safety, PK, and PDy profile, tolerability and anti-cancer effect of the anti-TIM-3 antibody in combination with an anti-PD-1 antibody wherein the anti-TIM-3 antibody is administered as a dose escalation. […] The anti-PD-1 antibody can be dosed at an approved dose and schedule for a marketed agent and on a weight basis at a dose of 3 or 10 mg/kg Q2W or Q3W or on a flat dose basis of 500 mg antibody Q2W or Q3W by using a modified 3+3 design.
Primary endpoints include determining the safety and tolerability of TSR-022 by Common Terminology Criteria for Adverse Events (CTCAE v4) and to determine the recommended phase 2 dose (RP2D) and schedule for monotherapy and combination with an anti-PD-1 antibody. […]

| Molecule | IC50 ([1]; read-out: IC50, PARP activity in cells) [nM] | IC90 ([1]; read-out: inhibitory concentration at 90% of control (IC90), PARP activity in cells) [nM] | stable disease as best response ([2]; efficacy evaluable patients, monotherapy Part 1a, 0.03-10 mg/kg Q2W) | partial response as best response ([2]; efficacy evaluable patients, monotherapy, at 10 mg/kg) | tumor reduction ([2]; one patient with metastatic leiomyosarcoma, 3 doses at 10 mg/kg, pending confirmatory imaging) [%] | PK behavior, serum concentration versus time [3] | day through which maximal occupancy is maintained ([4]; 3 mg/kg, single dose on day 1, FIG. 7B) [days] | maintenance of maximal occupancy ([4]; 10 mg/kg, through the days of available data, versus 3 mg/kg, FIG. 7C) | receptor occupancy compared between regimens ([4]; 100 mg Q3W versus 3 mg/kg Q2W) | target coverage in the periphery (receptor occupancy) ([4]; 100 mg flat dose Q3W, single dose on day 1, FIG. 10) | receptor occupancy (RO) ([4]; 300 mg flat dose TSR-022 in combination with 500 mg flat dose TSR-042, FIG. 11) | mean occupancy ratio (free TIM-3:total TIM-3) ([4]; 1, 3, 10 mg/kg and flat doses of 100, 300, 1200 mg, over a range of days, FIG. 12) | receptor occupancy on peripheral monocytes versus exposure ([4]; patients, whole blood, FIG. 6B) | day on which receptor occupancy is maximal ([4]; single dose on day 1, across doses 1, 3, 10 mg/kg, FIGS. 7A-7C) [days] | MTD ([5]; dose escalation continued to 1.0 mg/kg Q2W) | tolerability ([5]; monotherapy, patients) |
| --- | --- | --- | --- | --- | --- | --- | --- | --- | --- | --- | --- | --- | --- | --- | --- | --- |
| NC(=O)c1cccc2cn(-c3ccc([C@@H]4CCCNC4)cc3)nc12 [Niraparib, (3S)-3-[4-{7-(aminocarbonyl)-2H-indazol-2-yl}phenyl]piperidine] | ~4 | ~50 | – | – | – | – | – | – | – | – | – | – | – | – | – | – |
| TSR-022: humanized monoclonal anti-TIM-3 IgG4 antibody, heavy chain SEQ ID NO: 3, light chain SEQ ID NO: 4, S228 Ser to Pro hinge mutation | – | – | 5/25 | 1/25 | 32 | linear PK behavior | ≥ 29 | comparable results are obtained | comparable to 3 mg/kg Q2W | achieved at 100 mg for the duration of the dosing interval | high RO can be maintained over the measured time period | high occupancy ratios | correlate with TSR-022 exposure | 3 | a MTD has not yet been identified | well-tolerated across multiple dose levels |
